Measurements taken from PMC10699845, “Light quality regulates plant biomass and fruit quality through a photoreceptor-dependent HY5-LHC/CYCB module in tomato”.

T1: SlHY5 (Solanum lycopersicum, UniProt Q9SM50 1-158)
T1 sequence: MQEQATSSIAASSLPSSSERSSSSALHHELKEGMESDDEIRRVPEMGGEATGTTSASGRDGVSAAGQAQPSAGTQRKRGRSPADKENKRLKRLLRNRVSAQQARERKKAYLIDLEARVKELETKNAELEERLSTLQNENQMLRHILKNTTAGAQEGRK

B1: SlLHCB-m probe (dsDNA)
DNA 1: CTGCTTAGTTGTTTTTCTTGTAATCCTC
DNA 2: GAGGATTACAAGAAAAACAACTAAGCAG
B2: SlLHCB probe (dsDNA)
DNA 1: CTGCTTAGTTGTACGTCTTGTAATCCTC
DNA 2: GAGGATTACAAGACGTACAACTAAGCAG
B3: SlLHCA-m probe (dsDNA)
DNA 1: CAAATTGGTGACATTTTACATTCTGGCA
DNA 2: TGCCAGAATGTAAAATGTCACCAATTTG
B4: SlLHCA probe (dsDNA)
DNA 1: CAAATTGGTGACAACGTACATTCTGGCA
DNA 2: TGCCAGAATGTACGTTGTCACCAATTTG
B5: SlCYCB-m probe (dsDNA)
DNA 1: ACGTGTTTATTTTTTACTTTAAGATTTTG
DNA 2: CAAAATCTTAAAGTAAAAAATAAACACGT
B6: SlCYCB probe (dsDNA)
DNA 1: ACGTGTTTATTTTTTACTTTAAGAACGTG
DNA 2: CACGTTCTTAAAGTAAAAAATAAACACGT

Biological target: T1, SlHY5
Assay: EMSA; LightShift Chemiluminescent EMSA kit (Thermo 20148); buffer, salt, pH and temperature not stated
Details: protein: recombinant, tags: His, chain copies: 2, blunt

Row | Binder | binding result
1 | B1 | no binding
2 | B2 | binds
3 | B3 | no binding
4 | B4 | binds
5 | B5 | no binding
6 | B6 | binds
